Data on two molecules can be found in article PMC4361737 (The Journal of investigative dermatology, 2013).

As usually defined, the Kd is the constant that tells how readily two partners part at equilibrium.

The chains are these.
B1: Fras1 CSPG (domain or fragment)
chain: TPSLHVNGSLTLGIGSMKPLDFSLLNIQHQDGRVEDLLFHVVSTPTNGQLLLSRNGKEVQLEKAGHFSWKDVNEKKVRFVHSKEKLRKGYFSLKISDQQFFSEPQLINIQAFSTQAPYVLRNEVLHVSKGERATITTQLLDIRDDDNPQDVVVNVLDPPLHGQLLQMPPAPAASIYQFHLDELSRGLLLYAHDGSDSTSDIIVFQANDGHSFQNILFHVKNIPKNDRALRLVTNSMVWVPEGGMLKITNRILKAQAPGVRADDIIYKITHSRPQFGEVVLLMNLPADSPAGPAEEGHHLPDGRMATPISTFTQQDIDDGVVWYRHLGAPTQSDSFRFQVSSATSAQEHLESHMFNIAILPQAPEAPKLSLGTSLHMTAREDGLSVIQPQSLSFVKAESPSGKIIYNITVPLHPNQGIIEHRDRPHSPIQYFTQEDINQGQIMYRPPVAPPHLQEIMAFSFAGLPESVKFYFTVSDGQHTSPEMALTIHLLHSDLQPPAFQVKAPLLEVSPGGRTSLGLQLLVRDAQVVPEELFFQLQKSPQHGMLVKYTAKSSVTMAAGDTFTYDEVERNVLQYVHDGSSAWEDSLEISVTDGLTVTTSEVKVEVSPSENRGPRLAPGSSLSMTVASQHTAIITRSHLAYVDDSSSDPEIWIRLSSLPLYGVLFRSSGPDMDELSGDSNFTMEDINKKNIRYSAVFETDGHSVTDGFHFSVSDMDGNHVDNQVFTITVTPAENPPHIIAFADLITVDEGGRAPLSLHHFFATEDQDNLQDDAVIKLSALPKYGCIENTGTGDRFGPGANSELEASFPIQDVLENYIYYFQSVHESIEPTHDVFSFYVSDGSGRSEIHSINITIERKNDEPPRMTLRPLGVRLSSGVAISNSSLSLQDLDTPDNELIFVLMKKPDHGHLLRRSTASDPLENGTVLDQGSSFTYQDVLAGLVGYLPGDIYMAVDEFRFSLTDGLHVDTGRMEIYIELPSTNIPHLAINRGLQLSAGSVARITEQHLKATDTDSEAGQVVYIMKEDPGAGRLLMAKADNLEQISVRGPIRSFTQADVSQGQIEYSHGPGEPGGSFAFKFDVVDGEGNKLADQSFSIGVLEDKSPPVVITNRGLVLDENSVEKITTAQLSATDQDSKPTELIYRITTQPQLGHLEHVASPGIQISSFTQADLASRNVQYVRSSGTGKQSDAFSFVLSDGLHEVTQTFPITIHPVDDARPLVQNRGMRVQEGVRKTITEFELKAVDVDTEAESITFTIVQPPRHGTIERTARGQRFHQTSSFTMEDIYQNRVSYSHDGSNSLKDRFTFTVSDGTNPFFIIEEGGEEIMTAAPQQFHVDILPVDDGTPRIVTNLGLQWLEYMDGKATNLITKKELLTVDPDTEDSQLIYEVTTGPMHGYLENKLQPGRAAATFTQEHVNLGLIRYVLYEEKIQKVMDSFQFLVKDSKPNV
B2: AMACO P2 (domain or fragment)
chain: SSSALCTTADPDCRVEPHPCERRTLETVRELAGNALCWRGSRQADTVLALPCPFYSWKRVFQTHPANCYRTICPGPCDSQPCQNGGTCIPEGVDRYHCLCPLAFGGEVNCAPKLSLECRIDVLFLLDSSAGTTLGGFRRAKAFVKRFVQAVLREDSRARVGIASYGRNLMVAVPVGEYQHVPDLIRSLDSIPFSGGPTLTGSALLQVAEHGFGSASRTGQDRPRRVVVLLTESRSQDEVSGPAAHARARELLLLGVGSEILQAELVKITGSPKHVMVHTDPQDLFSQIPELQRRL
modifications: two unusual glycan chains

In the test “AMACO P2” the target is B2. Put plainly: SPR.
The target of the test “Fras1 CSPG” is B1. The test is described as follows: SPR.

For B1, the Kd with AMACO P2 is 42 nM.
For B2, the Kd in the test with Fras1 CSPG worked out at 151 nM.
